These results are taken from the supplement of paper PMC9112550, “Optimization of the antimicrobial peptide Bac7 by deep mutational scanning” (BMC Biology, 2022).
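Also: peptides expressed intracellularly from a pBAD plasmid library in pooled LB shake-flask culture, induced with 0.3% L-arabinose, DNA abundance read by NGS, three biological replicates, DESeq2 with apeglm shrinkage.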

The data set deals with Escherichia coli TOP10. In words: shrunken log2 fold change of peptide-encoding DNA abundance (4.5 h post-induction vs induction); higher = less antimicrobial activity (less host growth inhibition). To be noted: time post-induction: 4.5 h; library: site-saturation at positions 5, 18, 19, 20.
For the sequence RRIRKRPPRLPRPRPRPDAKPRP, the “shrunken log2 fold change” value is 0.165.
For RRIRKRPPRLPRPRPRPCKRPRP, the “shrunken log2 fold change” value was -0.194.
As for RRIRLRPPRLPRPRPRPGHRPRP, the “shrunken log2 fold change” value was -0.114.
As for RRIRHRPPRLPRPRPRPTIGPRP, the figure is -0.0227; as for RRIRQRPPRLPRPRPRPIHQPRP, -0.15; as for RRIRERPPRLPRPRPRPGEPPRP, -0.107.
The same measure for RRIRSRPPRLPRPRPRPKWGPRP: 0.228.
The same measure for RRIRWRPPRLPRPRPRPKGKPRP: -0.00191.
Regarding RRIRRRPPRLPRPRPRPYEQPRP, the “shrunken log2 fold change” value was -0.214.
The same measure for RRIRRRPPRLPRPRPRPYFRPRP: -0.203; for RRIRKRPPRLPRPRPRPQRCPRP: 0.269.
For RRIRQRPPRLPRPRPRPFCIPRP, the “shrunken log2 fold change” value was -0.641.
The same measure for RRIRARPPRLPRPRPRPYMAPRP: -0.702.
The same measure for RRIRVRPPRLPRPRPRPNVNPRP: -0.494.
As for RRIRLRPPRLPRPRPRPAWVPRP, the figure is -0.0218; as for RRIRCRPPRLPRPRPRPQYEPRP, -0.119.
With RRIRWRPPRLPRPRPRPECFPRP, the “shrunken log2 fold change” value was determined as 0.671.
The same measure for RRIRHRPPRLPRPRPRPIHRPRP: -0.147; for RRIRSRPPRLPRPRPRPNMKPRP: -0.436; for RRIRFRPPRLPRPRPRPAKAPRP: 0.26.
Regarding RRIRHRPPRLPRPRPRPRTYPRP, the “shrunken log2 fold change” value is -0.749.
Regarding RRIRPRPPRLPRPRPRPVPSPRP, the “shrunken log2 fold change” value came out at 0.448.
As to RRIRRRPPRLPRPRPRPYMPPRP, the “shrunken log2 fold change” value is -0.186.
As for RRIRIRPPRLPRPRPRPLMMPRP, the figure is -1.03; as for RRIRSRPPRLPRPRPRPTWPPRP, 0.41; as for RRIRERPPRLPRPRPRPNRYPRP, -0.0565.
In the case of RRIRNRPPRLPRPRPRPKMTPRP, the “shrunken log2 fold change” value is -0.149.
On to RRIRPRPPRLPRPRPRPVYKPRP, for which the “shrunken log2 fold change” value is -0.199.
For RRIRTRPPRLPRPRPRPIVHPRP, the “shrunken log2 fold change” value is -0.0385.
The same measure for RRIRARPPRLPRPRPRPWSLPRP: -0.181; for RRIRNRPPRLPRPRPRPMFMPRP: -0.424.
As for RRIRTRPPRLPRPRPRPTDSPRP, the figure is -0.106; as for RRIRSRPPRLPRPRPRPHNVPRP, -0.436.
Take RRIRHRPPRLPRPRPRPRCPPRP: the “shrunken log2 fold change” value was 0.169.
Take RRIRNRPPRLPRPRPRPLDWPRP: the “shrunken log2 fold change” value is -0.0554.
In the case of RRIRPRPPRLPRPRPRPSVNPRP, the “shrunken log2 fold change” value is -0.44.
Regarding RRIRRRPPRLPRPRPRPWGFPRP, the “shrunken log2 fold change” value was found to be 0.315.
As to RRIRVRPPRLPRPRPRPDCDPRP, the “shrunken log2 fold change” value was -0.102.
As for RRIRFRPPRLPRPRPRPWSMPRP, the figure is -0.548; as for RRIRIRPPRLPRPRPRPCVGPRP, -0.164; as for RRIRQRPPRLPRPRPRPVHHPRP, 0.04.
On to RRIRVRPPRLPRPRPRPCSEPRP, for which the “shrunken log2 fold change” value is -0.128.
The same measure for RRIRERPPRLPRPRPRPDNKPRP: -0.75; for RRIRIRPPRLPRPRPRPKLIPRP: -0.233.
As for RRIRSRPPRLPRPRPRPYSSPRP, the figure is -0.271; as for RRIRYRPPRLPRPRPRPWDGPRP, -0.196.
In the case of RRIRVRPPRLPRPRPRPWFPPRP, the “shrunken log2 fold change” value is -0.641.
The same measure for RRIRLRPPRLPRPRPRPMFWPRP: 0.145; for RRIRVRPPRLPRPRPRPTFIPRP: -0.166; for RRIRDRPPRLPRPRPRPANKPRP: -0.261.
As to RRIRQRPPRLPRPRPRPYSNPRP, the “shrunken log2 fold change” value was -0.0703.
RRIRRRPPRLPRPRPRPATPPRP: the “shrunken log2 fold change” value stood at 0.783.
For RRIRMRPPRLPRPRPRPDYDPRP, the “shrunken log2 fold change” value was 0.635.
On to RRIRTRPPRLPRPRPRPDCYPRP, for which the “shrunken log2 fold change” value was -0.000691.
As for RRIRGRPPRLPRPRPRPFMEPRP, the “shrunken log2 fold change” value is -0.114.
As for RRIRARPPRLPRPRPRPKAYPRP, the figure is 0.088; as for RRIRARPPRLPRPRPRPFRWPRP, -0.0369; as for RRIRHRPPRLPRPRPRPTATPRP, 0.39.
For the sequence RRIRGRPPRLPRPRPRPNWYPRP, the “shrunken log2 fold change” value was -0.0124.
The same measure for RRIRSRPPRLPRPRPRPPRRPRP: 0.701; for RRIRVRPPRLPRPRPRPHTIPRP: -0.487.
The same measure for RRIRHRPPRLPRPRPRPDWDPRP: -0.0204.
RRIRHRPPRLPRPRPRPGVQPRP: the “shrunken log2 fold change” value stood at 0.00489.
With RRIRERPPRLPRPRPRPLFLPRP, the “shrunken log2 fold change” value was -0.306.
Take RRIRHRPPRLPRPRPRPEVPPRP: the “shrunken log2 fold change” value is -0.00339.
For the sequence RRIRMRPPRLPRPRPRPICQPRP, the “shrunken log2 fold change” value amounted to 3.43.
On to RRIRGRPPRLPRPRPRPPKDPRP, for which the “shrunken log2 fold change” value was determined as 0.799.
Consider RRIRIRPPRLPRPRPRPNTDPRP, for which the “shrunken log2 fold change” value was -0.703.
The same measure for RRIRLRPPRLPRPRPRPENPPRP: -0.173; for RRIRTRPPRLPRPRPRPDHNPRP: -0.471.
As for RRIRKRPPRLPRPRPRPMELPRP, the figure is 0.159; as for RRIRHRPPRLPRPRPRPNCYPRP, -0.0056.
As for RRIRERPPRLPRPRPRPFMQPRP, the figure is -0.178; as for RRIRFRPPRLPRPRPRPGQKPRP, -0.0331.
Consider RRIRPRPPRLPRPRPRPGKMPRP, for which the “shrunken log2 fold change” value was determined as 0.0379.
As for RRIRDRPPRLPRPRPRPGCMPRP, the figure is 0.206; as for RRIRIRPPRLPRPRPRPQNIPRP, -1.22.
As for RRIRIRPPRLPRPRPRPTMCPRP, the figure is -0.386; as for RRIRLRPPRLPRPRPRPSWKPRP, 0.132.
As for RRIRQRPPRLPRPRPRPMMGPRP, the figure is -0.107; as for RRIRERPPRLPRPRPRPWFEPRP, -0.0941; as for RRIRKRPPRLPRPRPRPTRPPRP, 0.764.
For the sequence RRIRLRPPRLPRPRPRPDTSPRP, the “shrunken log2 fold change” value is -0.114.
As for RRIRLRPPRLPRPRPRPFGWPRP, the figure is 0.0538; as for RRIRPRPPRLPRPRPRPVPNPRP, 0.14; as for RRIRCRPPRLPRPRPRPSLQPRP, -0.455.
Regarding RRIRYRPPRLPRPRPRPSREPRP, the “shrunken log2 fold change” value was -0.0635.
As for RRIRLRPPRLPRPRPRPLFGPRP, the figure is -0.0652.
As for RRIRRRPPRLPRPRPRPHCIPRP, the figure is 0.0457.
The same measure for RRIRRRPPRLPRPRPRPDIQPRP: 0.0298; for RRIRRRPPRLPRPRPRPLRFPRP: 0.836.
For RRIRPRPPRLPRPRPRPFSDPRP, the “shrunken log2 fold change” value was -0.0761.
As for RRIRDRPPRLPRPRPRPKKEPRP, the figure is 0.0609; as for RRIRERPPRLPRPRPRPCKRPRP, -0.294.
For RRIRVRPPRLPRPRPRPVYRPRP, the “shrunken log2 fold change” value is 0.132.
Take RRIRGRPPRLPRPRPRPHNGPRP: the “shrunken log2 fold change” value was found to be 0.0528.
The same measure for RRIRHRPPRLPRPRPRPIVDPRP: 0.0237; for RRIRYRPPRLPRPRPRPDTQPRP: -0.00672.
For the sequence RRIRHRPPRLPRPRPRPHVIPRP, the “shrunken log2 fold change” value was -0.302.
As for RRIRLRPPRLPRPRPRPCDFPRP, the “shrunken log2 fold change” value stood at 0.092.
The same measure for RRIRARPPRLPRPRPRPVECPRP: 0.0527; for RRIRDRPPRLPRPRPRPTYPPRP: -0.106; for RRIRHRPPRLPRPRPRPGVEPRP: 0.0675.
The same measure for RRIRFRPPRLPRPRPRPPIWPRP: 0.317; for RRIRLRPPRLPRPRPRPFTVPRP: 0.0023; for RRIRKRPPRLPRPRPRPALLPRP: 0.246.
As for RRIRWRPPRLPRPRPRPNQTPRP, the figure is 0.0653; as for RRIRHRPPRLPRPRPRPVCWPRP, 0.268.
With RRIRSRPPRLPRPRPRPDHMPRP, the “shrunken log2 fold change” value was -0.00607.
Take RRIRPRPPRLPRPRPRPWGHPRP: the “shrunken log2 fold change” value was -0.0804.
Take RRIRQRPPRLPRPRPRPTLFPRP: the “shrunken log2 fold change” value came out at 0.12.
As for RRIRPRPPRLPRPRPRPSRRPRP, the “shrunken log2 fold change” value was -0.179.
In the case of RRIRLRPPRLPRPRPRPQIPPRP, the “shrunken log2 fold change” value is -0.273.
As for RRIRERPPRLPRPRPRPHCAPRP, the “shrunken log2 fold change” value was 0.201.
As for RRIRCRPPRLPRPRPRPADEPRP, the figure is 0.431.
As for RRIRVRPPRLPRPRPRPSPPPRP, the figure is -0.0761; as for RRIRHRPPRLPRPRPRPLFHPRP, -0.462; as for RRIRSRPPRLPRPRPRPWTRPRP, 0.0569.
Turning to RRIRRRPPRLPRPRPRPAQAPRP, the “shrunken log2 fold change” value was 0.233.
As to RRIRYRPPRLPRPRPRPWAQPRP, the “shrunken log2 fold change” value was -0.37.
As for RRIRCRPPRLPRPRPRPMGSPRP, the figure is 0.0655; as for RRIRLRPPRLPRPRPRPLQQPRP, 0.0442; as for RRIRFRPPRLPRPRPRPDTPPRP, 1.5.
The same measure for RRIRGRPPRLPRPRPRPLDFPRP: 0.78; for RRIRWRPPRLPRPRPRPPHRPRP: 0.321.
